From paper PMC7353701, “Molecular characterization and heterologous expression of two α-glucosidases from Metschnikowia spp, both producers of honey sugars” (Microbial Cell Factories, 2020) come the findings set out here.

Substrate in series [1]: OC[C@H]1O[C@@](CO)(O[C@H]2O[C@H](CO)[C@@H](O)[C@H](O)[C@H]2O)[C@@H](O)[C@@H]1O
As to the kind of experiment: initial rates, Michaelis-Menten fit. The class given is biochemical, Metschnikowia gruessii. Particulars: 0-225 mM sucrose, standard assay 50 mM sodium phosphate pH 7.0, 30 °C.

Substrate in series [2]: OC[C@H]1O[C@@](CO)(O[C@H]2O[C@H](CO)[C@@H](O)[C@H](O)[C@H]2O)[C@@H](O)[C@@H]1O
The experiment in a line: initial rates, Michaelis-Menten fit. Particulars: 0-225 mM sucrose, standard assay 50 mM sodium phosphate pH 7.0, 30 °C. The class given is biochemical, Metschnikowia reukaufii.

Substitutions are numbered along the chain they refer to.

B1: Mg-αGlu (Metschnikowia gruessii) (protein)
chain: MTDAIWWKDASVYQIWPASYKDSNGDGFGDIPGVISTLDYIKNLGVDVIWLSPMYDSPQDDMGYDVADYENVYPKYGTLEDMDTLISEVHARGMKLILDLVINHTSTAHKWFEESKSDKENPKRDWYIWKPARYDEDGNRHPPNNWQSYFSGSAWEYDENTDEYYLHLFAKSQPDLNWENDETRQAIYDSALTFWFEKGVDGFRIDTAGMYSKVQTFEDAPIVFPDLEWQPCTDFHQSGPRIHEFHKEMFEKVTSKYDAMTVGEVGHSSREDALKYVSAQEKEMNMMFLFDLVEVGSNPSDRFRYDGFKLTDFKQAVSNMSSFSEGTDAWSTCFFENHDQPRCITRFGNDSPEYLFRSGKMLATLLTSLTGTLFIYQGQEFGMTNVPLEWNIDEYKDINTVNYYQLYVEKNGEENVGELIKNINLVARDNARTPVQWDGTENGGFSTGQPWMRVNDNYQQVNAASQVNDPESLYNFYKKALEVRKEHKDVLIYGSLEIIDFDDERVFSFYKKSGDKTAYVVLNFTKDPIDFKPAVESELELVLTNEREIRDDVLSPYESRLYIVKN
With B1, in series [1], the Km (usually the substrate concentration at which the rate is half of its maximum) came to 54.1 ± 5.8 mM; the kcat (commonly the number of substrate molecules converted per active site and unit of time at saturation) was 270 ± 10.9 s⁻¹; the kcat/Km (commonly the second-order rate constant that governs catalysis at low substrate concentration) amounted to 4900 ± 700 M⁻¹ s⁻¹.

B2: Mr-αGlu (Metschnikowia reukaufii) (protein)
chain: B1 chain with T233A, S300K, R304I, S318A
For the protein B2, in series [2], the Km is reported as 64.9 ± 4.6 mM, the kcat turned out to be 477 ± 13.7 s⁻¹ and the kcat/Km was found to be 7400 ± 700 M⁻¹ s⁻¹.
